Holding throughout (assay): SPR, mAb captured, C2 mutant analyte;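 also: Anti-C2 mAbs captured on goat anti-human IgG Biacore CM5 chips, alanine or serine C2 surface mutants flowed over at 37 °C, double-referenced sensorgrams fitted to a 1:1 binding model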
For one assay, the target named is T1, human C2 N268A (human, UniProt P06681 21-752).
T1 sequence: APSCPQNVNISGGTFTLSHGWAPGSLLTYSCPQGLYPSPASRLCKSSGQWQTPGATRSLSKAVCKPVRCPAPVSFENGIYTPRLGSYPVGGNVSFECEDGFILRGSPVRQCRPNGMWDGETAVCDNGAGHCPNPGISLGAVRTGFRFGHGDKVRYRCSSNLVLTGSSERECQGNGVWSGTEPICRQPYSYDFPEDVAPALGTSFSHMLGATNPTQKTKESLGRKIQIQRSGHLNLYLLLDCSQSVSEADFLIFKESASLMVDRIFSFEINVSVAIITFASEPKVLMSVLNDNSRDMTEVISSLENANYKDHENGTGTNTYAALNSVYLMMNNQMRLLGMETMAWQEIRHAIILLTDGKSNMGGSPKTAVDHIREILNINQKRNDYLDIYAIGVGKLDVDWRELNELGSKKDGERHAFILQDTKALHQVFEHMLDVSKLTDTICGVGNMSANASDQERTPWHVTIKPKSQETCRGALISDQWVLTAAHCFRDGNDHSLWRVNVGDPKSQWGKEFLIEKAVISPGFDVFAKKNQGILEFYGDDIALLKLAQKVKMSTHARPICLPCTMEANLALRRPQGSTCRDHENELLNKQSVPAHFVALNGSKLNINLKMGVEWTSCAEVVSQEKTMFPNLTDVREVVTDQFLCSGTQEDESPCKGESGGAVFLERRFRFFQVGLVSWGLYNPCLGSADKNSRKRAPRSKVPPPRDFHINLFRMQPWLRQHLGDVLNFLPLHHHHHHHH

A further assay has as its target T2, human C2 H331A (human, UniProt P06681 21-752).
T2 sequence: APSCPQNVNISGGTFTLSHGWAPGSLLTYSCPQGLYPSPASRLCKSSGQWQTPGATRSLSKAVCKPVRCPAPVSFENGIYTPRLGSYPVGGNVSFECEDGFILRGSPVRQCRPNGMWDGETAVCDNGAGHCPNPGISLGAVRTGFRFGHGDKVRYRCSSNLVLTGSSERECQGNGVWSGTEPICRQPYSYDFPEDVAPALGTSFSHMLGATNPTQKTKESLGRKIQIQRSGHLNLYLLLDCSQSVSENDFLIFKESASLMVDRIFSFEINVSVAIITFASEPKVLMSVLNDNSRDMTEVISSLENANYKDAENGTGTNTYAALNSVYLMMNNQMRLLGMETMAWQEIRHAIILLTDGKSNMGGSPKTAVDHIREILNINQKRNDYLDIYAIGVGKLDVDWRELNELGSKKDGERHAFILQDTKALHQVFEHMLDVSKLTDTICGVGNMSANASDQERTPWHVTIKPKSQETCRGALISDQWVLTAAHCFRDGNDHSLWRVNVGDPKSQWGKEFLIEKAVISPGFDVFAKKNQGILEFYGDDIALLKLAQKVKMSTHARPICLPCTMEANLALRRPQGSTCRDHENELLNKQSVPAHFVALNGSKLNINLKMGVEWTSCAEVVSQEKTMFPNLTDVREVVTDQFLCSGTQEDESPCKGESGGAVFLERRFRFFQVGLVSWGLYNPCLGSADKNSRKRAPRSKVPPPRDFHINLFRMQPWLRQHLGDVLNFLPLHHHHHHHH

For the next assay, the target named is T3, human C2 G677A (human, UniProt P06681 21-752).
T3 sequence: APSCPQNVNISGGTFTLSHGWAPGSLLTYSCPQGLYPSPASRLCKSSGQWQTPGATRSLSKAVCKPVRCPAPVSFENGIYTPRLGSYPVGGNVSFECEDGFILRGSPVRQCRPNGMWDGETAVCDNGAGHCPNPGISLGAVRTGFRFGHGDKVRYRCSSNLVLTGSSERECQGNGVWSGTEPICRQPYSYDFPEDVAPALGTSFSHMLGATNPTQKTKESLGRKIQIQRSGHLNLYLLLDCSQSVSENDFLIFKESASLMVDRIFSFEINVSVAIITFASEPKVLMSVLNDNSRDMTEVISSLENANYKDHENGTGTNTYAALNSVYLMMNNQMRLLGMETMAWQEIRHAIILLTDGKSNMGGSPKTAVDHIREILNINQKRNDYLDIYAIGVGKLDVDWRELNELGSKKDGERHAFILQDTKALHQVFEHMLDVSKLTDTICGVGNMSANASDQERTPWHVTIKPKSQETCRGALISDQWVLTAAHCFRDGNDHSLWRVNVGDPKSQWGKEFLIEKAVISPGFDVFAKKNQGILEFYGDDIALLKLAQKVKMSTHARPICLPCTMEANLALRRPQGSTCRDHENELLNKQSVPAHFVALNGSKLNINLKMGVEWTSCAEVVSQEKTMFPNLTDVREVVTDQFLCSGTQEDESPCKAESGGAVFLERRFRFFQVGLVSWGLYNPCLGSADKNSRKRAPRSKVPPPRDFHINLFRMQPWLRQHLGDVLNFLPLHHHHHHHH

The target in a further assay is T4, human C2 N327A (human, UniProt P06681 21-752).
T4 sequence: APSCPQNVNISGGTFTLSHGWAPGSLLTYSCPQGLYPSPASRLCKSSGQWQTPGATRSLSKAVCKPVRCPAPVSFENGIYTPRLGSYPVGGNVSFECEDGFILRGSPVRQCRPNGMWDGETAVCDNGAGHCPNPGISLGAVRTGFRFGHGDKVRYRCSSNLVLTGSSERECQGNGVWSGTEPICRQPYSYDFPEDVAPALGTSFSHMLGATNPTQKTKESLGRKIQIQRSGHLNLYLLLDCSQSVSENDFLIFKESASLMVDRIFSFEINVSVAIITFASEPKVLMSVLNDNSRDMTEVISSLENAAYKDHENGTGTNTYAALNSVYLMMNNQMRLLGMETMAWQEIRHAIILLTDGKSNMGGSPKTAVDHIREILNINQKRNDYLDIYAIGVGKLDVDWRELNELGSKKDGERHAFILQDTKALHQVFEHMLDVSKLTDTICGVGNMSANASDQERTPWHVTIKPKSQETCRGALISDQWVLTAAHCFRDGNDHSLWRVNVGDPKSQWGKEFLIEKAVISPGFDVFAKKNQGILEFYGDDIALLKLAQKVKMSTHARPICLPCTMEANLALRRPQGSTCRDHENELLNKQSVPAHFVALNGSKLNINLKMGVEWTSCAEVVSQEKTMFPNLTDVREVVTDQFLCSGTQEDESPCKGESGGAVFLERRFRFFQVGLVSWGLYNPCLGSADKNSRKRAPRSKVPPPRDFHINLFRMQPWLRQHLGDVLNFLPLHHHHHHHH

The results in this text go back to patent US20220332804A1 (CSL INNOVATION, published 2022).

B1: RF16-214 (antibody, V domains shown)
VH: EVQLLESGGGLVQPGGSLRLSCAASGFTFSWYQMMWVRQAPGKGLEWVSRIYPSGGGTAYADSVKGRFTISRDNSKNTLYLQMNSLRAEDTAVYYCARDAGYGDNWGQGTLVTVSS
VL: QSALTQPPSVSVSPGQTASITCSGDKLGEKYASWYQQKAGQSPVMVIYQDRKRPSGIPERFSGSNSGNTATLTISGTQAMDEADYYCQAWDTRAVVFGGGTKLTVLG
As a reminder, the Kd is the equilibrium constant for the complex coming apart. A high value points to weaker binding. Regarding B1, the dissociation constant (Kd) amounted to 60.8 nM in the assay with human C2 N268A, 28.1 nM in the assay with human C2 G677A and 205 nM in the assay with human C2 N327A. The binding result in the assay with human C2 H331A is “no binding”.
